Results from patent US20110118131A1 (published 2011).

Target: T1, IL-1β (UniProt P01584 117-269)
T1 construct: Antigen immobilised on the Biacore chip
Assay: Biacore, periplasmic extract

Row | fold difference in affinity vs original | binding result | Binder
1 | 1.23 fold | – | XPA23 light chain S53N (Fab, V domains shown) VH: EVQLLESGGGLVQPGGSLRLSCAASGFTFSKYFMFWVRQAPGKGLEWVSVISPSGGMTRYADSVKGRFTISRDNSKNTLYLQMNSLRAEDTAVYYCARVGYGGNSDYWGQGTLVTVSS VL: DIQMTQSPSSVSASVGDRLTIICRASQDINRWLAWYQQTPGNAPKLLIHSATNLQSGVPSRFSGSGSGTDFTLTINSLQPEDFATYYCQQADSFPLTFGGGTKVEIK
2 | 0.91 fold | – | XPA23 light chain S93R (Fab, V domains shown) VH: EVQLLESGGGLVQPGGSLRLSCAASGFTFSKYFMFWVRQAPGKGLEWVSVISPSGGMTRYADSVKGRFTISRDNSKNTLYLQMNSLRAEDTAVYYCARVGYGGNSDYWGQGTLVTVSS VL: DIQMTQSPSSVSASVGDRLTIICRASQDINRWLAWYQQTPGNAPKLLIHSATSLQSGVPSRFSGSGSGTDFTLTINSLQPEDFATYYCQQADRFPLTFGGGTKVEIK
3 | 1.11 fold | – | XPA23 light chain S53W (Fab, V domains shown) VH: EVQLLESGGGLVQPGGSLRLSCAASGFTFSKYFMFWVRQAPGKGLEWVSVISPSGGMTRYADSVKGRFTISRDNSKNTLYLQMNSLRAEDTAVYYCARVGYGGNSDYWGQGTLVTVSS VL: DIQMTQSPSSVSASVGDRLTIICRASQDINRWLAWYQQTPGNAPKLLIHSATWLQSGVPSRFSGSGSGTDFTLTINSLQPEDFATYYCQQADSFPLTFGGGTKVEIK
4 | 1.45 fold | – | XPA23 light chain S93Y (Fab, V domains shown) VH: EVQLLESGGGLVQPGGSLRLSCAASGFTFSKYFMFWVRQAPGKGLEWVSVISPSGGMTRYADSVKGRFTISRDNSKNTLYLQMNSLRAEDTAVYYCARVGYGGNSDYWGQGTLVTVSS VL: DIQMTQSPSSVSASVGDRLTIICRASQDINRWLAWYQQTPGNAPKLLIHSATSLQSGVPSRFSGSGSGTDFTLTINSLQPEDFATYYCQQADYFPLTFGGGTKVEIK
5 | 1.05 fold | – | XPA23 light chain T52F (Fab, V domains shown) VH: EVQLLESGGGLVQPGGSLRLSCAASGFTFSKYFMFWVRQAPGKGLEWVSVISPSGGMTRYADSVKGRFTISRDNSKNTLYLQMNSLRAEDTAVYYCARVGYGGNSDYWGQGTLVTVSS VL: DIQMTQSPSSVSASVGDRLTIICRASQDINRWLAWYQQTPGNAPKLLIHSAFSLQSGVPSRFSGSGSGTDFTLTINSLQPEDFATYYCQQADSFPLTFGGGTKVEIK
6 | 0.72 fold | – | XPA23 light chain T52D (Fab, V domains shown) VH: EVQLLESGGGLVQPGGSLRLSCAASGFTFSKYFMFWVRQAPGKGLEWVSVISPSGGMTRYADSVKGRFTISRDNSKNTLYLQMNSLRAEDTAVYYCARVGYGGNSDYWGQGTLVTVSS VL: DIQMTQSPSSVSASVGDRLTIICRASQDINRWLAWYQQTPGNAPKLLIHSADSLQSGVPSRFSGSGSGTDFTLTINSLQPEDFATYYCQQADSFPLTFGGGTKVEIK
7 | 3.29 fold | – | XPA23 light chain S53R (Fab, V domains shown) VH: EVQLLESGGGLVQPGGSLRLSCAASGFTFSKYFMFWVRQAPGKGLEWVSVISPSGGMTRYADSVKGRFTISRDNSKNTLYLQMNSLRAEDTAVYYCARVGYGGNSDYWGQGTLVTVSS VL: DIQMTQSPSSVSASVGDRLTIICRASQDINRWLAWYQQTPGNAPKLLIHSATRLQSGVPSRFSGSGSGTDFTLTINSLQPEDFATYYCQQADSFPLTFGGGTKVEIK
8 | 0.66 fold | – | XPA23 light chain T52A (Fab, V domains shown) VH: EVQLLESGGGLVQPGGSLRLSCAASGFTFSKYFMFWVRQAPGKGLEWVSVISPSGGMTRYADSVKGRFTISRDNSKNTLYLQMNSLRAEDTAVYYCARVGYGGNSDYWGQGTLVTVSS VL: DIQMTQSPSSVSASVGDRLTIICRASQDINRWLAWYQQTPGNAPKLLIHSAASLQSGVPSRFSGSGSGTDFTLTINSLQPEDFATYYCQQADSFPLTFGGGTKVEIK
9 | 1.32 fold | – | XPA23 light chain S93F (Fab, V domains shown) VH: EVQLLESGGGLVQPGGSLRLSCAASGFTFSKYFMFWVRQAPGKGLEWVSVISPSGGMTRYADSVKGRFTISRDNSKNTLYLQMNSLRAEDTAVYYCARVGYGGNSDYWGQGTLVTVSS VL: DIQMTQSPSSVSASVGDRLTIICRASQDINRWLAWYQQTPGNAPKLLIHSATSLQSGVPSRFSGSGSGTDFTLTINSLQPEDFATYYCQQADFFPLTFGGGTKVEIK
10 | 0.91 fold | – | XPA23 light chain T52H (Fab, V domains shown) VH: EVQLLESGGGLVQPGGSLRLSCAASGFTFSKYFMFWVRQAPGKGLEWVSVISPSGGMTRYADSVKGRFTISRDNSKNTLYLQMNSLRAEDTAVYYCARVGYGGNSDYWGQGTLVTVSS VL: DIQMTQSPSSVSASVGDRLTIICRASQDINRWLAWYQQTPGNAPKLLIHSAHSLQSGVPSRFSGSGSGTDFTLTINSLQPEDFATYYCQQADSFPLTFGGGTKVEIK
11 | 0.86 fold | – | XPA23 light chain S93K (Fab, V domains shown) VH: EVQLLESGGGLVQPGGSLRLSCAASGFTFSKYFMFWVRQAPGKGLEWVSVISPSGGMTRYADSVKGRFTISRDNSKNTLYLQMNSLRAEDTAVYYCARVGYGGNSDYWGQGTLVTVSS VL: DIQMTQSPSSVSASVGDRLTIICRASQDINRWLAWYQQTPGNAPKLLIHSATSLQSGVPSRFSGSGSGTDFTLTINSLQPEDFATYYCQQADKFPLTFGGGTKVEIK
12 | 1.54 fold | – | XPA23 light chain S93Q (Fab, V domains shown) VH: EVQLLESGGGLVQPGGSLRLSCAASGFTFSKYFMFWVRQAPGKGLEWVSVISPSGGMTRYADSVKGRFTISRDNSKNTLYLQMNSLRAEDTAVYYCARVGYGGNSDYWGQGTLVTVSS VL: DIQMTQSPSSVSASVGDRLTIICRASQDINRWLAWYQQTPGNAPKLLIHSATSLQSGVPSRFSGSGSGTDFTLTINSLQPEDFATYYCQQADQFPLTFGGGTKVEIK
13 | 3.71 fold | – | XPA23 light chain S93E (Fab, V domains shown) VH: EVQLLESGGGLVQPGGSLRLSCAASGFTFSKYFMFWVRQAPGKGLEWVSVISPSGGMTRYADSVKGRFTISRDNSKNTLYLQMNSLRAEDTAVYYCARVGYGGNSDYWGQGTLVTVSS VL: DIQMTQSPSSVSASVGDRLTIICRASQDINRWLAWYQQTPGNAPKLLIHSATSLQSGVPSRFSGSGSGTDFTLTINSLQPEDFATYYCQQADEFPLTFGGGTKVEIK
14 | 3.76 fold | – | XPA23 light chain S93N (Fab, V domains shown) VH: EVQLLESGGGLVQPGGSLRLSCAASGFTFSKYFMFWVRQAPGKGLEWVSVISPSGGMTRYADSVKGRFTISRDNSKNTLYLQMNSLRAEDTAVYYCARVGYGGNSDYWGQGTLVTVSS VL: DIQMTQSPSSVSASVGDRLTIICRASQDINRWLAWYQQTPGNAPKLLIHSATSLQSGVPSRFSGSGSGTDFTLTINSLQPEDFATYYCQQADNFPLTFGGGTKVEIK
15 | – | no binding | XPA23 light chain T52G (Fab, V domains shown) VH: EVQLLESGGGLVQPGGSLRLSCAASGFTFSKYFMFWVRQAPGKGLEWVSVISPSGGMTRYADSVKGRFTISRDNSKNTLYLQMNSLRAEDTAVYYCARVGYGGNSDYWGQGTLVTVSS VL: DIQMTQSPSSVSASVGDRLTIICRASQDINRWLAWYQQTPGNAPKLLIHSAGSLQSGVPSRFSGSGSGTDFTLTINSLQPEDFATYYCQQADSFPLTFGGGTKVEIK
16 | 5.49 fold | – | XPA23 light chain S93W (Fab, V domains shown) VH: EVQLLESGGGLVQPGGSLRLSCAASGFTFSKYFMFWVRQAPGKGLEWVSVISPSGGMTRYADSVKGRFTISRDNSKNTLYLQMNSLRAEDTAVYYCARVGYGGNSDYWGQGTLVTVSS VL: DIQMTQSPSSVSASVGDRLTIICRASQDINRWLAWYQQTPGNAPKLLIHSATSLQSGVPSRFSGSGSGTDFTLTINSLQPEDFATYYCQQADWFPLTFGGGTKVEIK
17 | 4.59 fold | – | XPA23 light chain S93D (Fab, V domains shown) VH: EVQLLESGGGLVQPGGSLRLSCAASGFTFSKYFMFWVRQAPGKGLEWVSVISPSGGMTRYADSVKGRFTISRDNSKNTLYLQMNSLRAEDTAVYYCARVGYGGNSDYWGQGTLVTVSS VL: DIQMTQSPSSVSASVGDRLTIICRASQDINRWLAWYQQTPGNAPKLLIHSATSLQSGVPSRFSGSGSGTDFTLTINSLQPEDFATYYCQQADDFPLTFGGGTKVEIK
18 | 0.8 fold | – | XPA23 light chain T52I (Fab, V domains shown) VH: EVQLLESGGGLVQPGGSLRLSCAASGFTFSKYFMFWVRQAPGKGLEWVSVISPSGGMTRYADSVKGRFTISRDNSKNTLYLQMNSLRAEDTAVYYCARVGYGGNSDYWGQGTLVTVSS VL: DIQMTQSPSSVSASVGDRLTIICRASQDINRWLAWYQQTPGNAPKLLIHSAISLQSGVPSRFSGSGSGTDFTLTINSLQPEDFATYYCQQADSFPLTFGGGTKVEIK
19 | 1.09 fold | – | XPA23 light chain S53Q (Fab, V domains shown) VH: EVQLLESGGGLVQPGGSLRLSCAASGFTFSKYFMFWVRQAPGKGLEWVSVISPSGGMTRYADSVKGRFTISRDNSKNTLYLQMNSLRAEDTAVYYCARVGYGGNSDYWGQGTLVTVSS VL: DIQMTQSPSSVSASVGDRLTIICRASQDINRWLAWYQQTPGNAPKLLIHSATQLQSGVPSRFSGSGSGTDFTLTINSLQPEDFATYYCQQADSFPLTFGGGTKVEIK
20 | 1.08 fold | – | XPA23 light chain S93H (Fab, V domains shown) VH: EVQLLESGGGLVQPGGSLRLSCAASGFTFSKYFMFWVRQAPGKGLEWVSVISPSGGMTRYADSVKGRFTISRDNSKNTLYLQMNSLRAEDTAVYYCARVGYGGNSDYWGQGTLVTVSS VL: DIQMTQSPSSVSASVGDRLTIICRASQDINRWLAWYQQTPGNAPKLLIHSATSLQSGVPSRFSGSGSGTDFTLTINSLQPEDFATYYCQQADHFPLTFGGGTKVEIK
21 | 1.23 fold | – | XPA23 light chain S53Y (Fab, V domains shown) VH: EVQLLESGGGLVQPGGSLRLSCAASGFTFSKYFMFWVRQAPGKGLEWVSVISPSGGMTRYADSVKGRFTISRDNSKNTLYLQMNSLRAEDTAVYYCARVGYGGNSDYWGQGTLVTVSS VL: DIQMTQSPSSVSASVGDRLTIICRASQDINRWLAWYQQTPGNAPKLLIHSATYLQSGVPSRFSGSGSGTDFTLTINSLQPEDFATYYCQQADSFPLTFGGGTKVEIK
22 | 0.61 fold | – | XPA23 light chain T52E (Fab, V domains shown) VH: EVQLLESGGGLVQPGGSLRLSCAASGFTFSKYFMFWVRQAPGKGLEWVSVISPSGGMTRYADSVKGRFTISRDNSKNTLYLQMNSLRAEDTAVYYCARVGYGGNSDYWGQGTLVTVSS VL: DIQMTQSPSSVSASVGDRLTIICRASQDINRWLAWYQQTPGNAPKLLIHSAESLQSGVPSRFSGSGSGTDFTLTINSLQPEDFATYYCQQADSFPLTFGGGTKVEIK
